167 variants from the RNAGym collection of RNA variant scans (doi:10.7554/elife.80360) can be followed below.

First the molecules themselves.
B1: Twister Ribozyme (parent)
chain: AACACUGCCAAUGCCGGUCCCAAGCCCGGAUAAAAGUGGAGGGGGCGG

This data set covers variants of B1. As to the kind of experiment: self-cleavage, relative activity (ratio to wild type); higher = more cleavage; co-transcriptional.
Take C5A A32G: the self-cleavage was determined as 0.542.

With C5G C20U, the self-cleavage is 0.65.

Consider C5G C20G, for which the self-cleavage was found to be 0.0308.

As to C5G U12C, the self-cleavage was found to be 0.896.

On to C5G U12A, for which the self-cleavage was found to be 0.821.

Take A4C G39U: the self-cleavage worked out at 0.0723.

With A4C G39C, the self-cleavage was found to be 0.0869.

Take C5G A30G: the self-cleavage worked out at 0.608.

In the case of C5G A30U, the self-cleavage stood at 0.883.

For A4G G7C, the self-cleavage was 0.0363.

In the case of A4G G7A, the self-cleavage turned out to be 0.169.

For A4G A40C, the self-cleavage was determined as 0.0709.

Consider A4G G24A, for which the self-cleavage was 0.0846.

For the variant A4G G24C, the self-cleavage was 0.0502.

For A4G U18G, the self-cleavage is 0.0583.

As for A4G U18C, the self-cleavage was 0.58.

As for A4U A10G, the self-cleavage is 0.125.

As to A4U A22U, the self-cleavage stood at 0.0795.

Consider A4C C15G, for which the self-cleavage worked out at 0.0431.

Take A4U G17U: the self-cleavage came to 0.0471.

Regarding A4U G17A, the self-cleavage was determined as 0.0705.

Consider C5G G38A, for which the self-cleavage was found to be 0.298.

Consider A4U G16A, for which the self-cleavage was determined as 0.0873.

Turning to A4C A22G, the self-cleavage was found to be 0.0686.

Consider A4G G44A, for which the self-cleavage was 0.88.

Take C5G G43U: the self-cleavage is 0.136.

With C5G G43A, the self-cleavage was determined as 0.153.

For the variant C5G G43C, the self-cleavage turned out to be 0.122.

For A4U A34G, the self-cleavage came to 0.0772.

As for A4C G16A, the self-cleavage was determined as 0.0955.

With A4U G28A, the self-cleavage was 0.0702.

As for C5G A22U, the self-cleavage came to 0.401.

Turning to C5G A22G, the self-cleavage was determined as 0.137.

As to C5G G29C, the self-cleavage was 0.306.

For the variant C5G G29U, the self-cleavage is 0.584.

On to C5G G29A, for which the self-cleavage was 0.458.

C5A G48C: the self-cleavage is 0.53.

With C5G A33C, the self-cleavage turned out to be 0.565.

With C5G A33U, the self-cleavage amounted to 0.662.

Turning to A4U G36A, the self-cleavage amounted to 0.056.

A4U G36U: the self-cleavage was 0.0439.

Regarding A4C C9G, the self-cleavage was 0.107.

Take A4C C9U: the self-cleavage was determined as 0.0772.

In the case of A4C C26A, the self-cleavage was determined as 0.0425.

For C5G C21G, the self-cleavage is 0.155.

For the variant C5A A34G, the self-cleavage worked out at 0.41.

A4U G42U: the self-cleavage came to 0.0714.

For the variant A4U U37A, the self-cleavage turned out to be 0.7.

For the variant A4U U37G, the self-cleavage worked out at 0.624.

Consider C5A G36U, for which the self-cleavage worked out at 0.689.

On to C5A G36A, for which the self-cleavage was found to be 0.583.

In the case of A4C C46U, the self-cleavage came out at 0.163.

With C3U G48U, the self-cleavage amounted to 0.562.

Consider A4G G29C, for which the self-cleavage stood at 0.571.

On to A4G G29U, for which the self-cleavage came to 0.851.

In the case of A4U G41U, the self-cleavage is 0.0632.

With A4U G41A, the self-cleavage was found to be 0.0938.

As to C5A U31A, the self-cleavage turned out to be 0.438.

Take C5A U31C: the self-cleavage came to 0.653.

Regarding A4G G42A, the self-cleavage is 0.289.

Consider A4G G42U, for which the self-cleavage is 0.195.

As for A4G U37A, the self-cleavage was 0.796.

With A4G U37G, the self-cleavage turned out to be 0.73.

As for A4C C27U, the self-cleavage is 0.112.

For A4C C27A, the self-cleavage was 0.0944.

Regarding C5A C9G, the self-cleavage is 0.0413.

Take C5G C27G: the self-cleavage came out at 0.0623.

As to A4G A34U, the self-cleavage was 0.499.

For A4G A34C, the self-cleavage was 0.128.

In the case of A4G G47C, the self-cleavage worked out at 0.386.

As to A4U G48U, the self-cleavage amounted to 0.147.

As to A4U A30G, the self-cleavage was found to be 0.176.

Regarding A4U A30C, the self-cleavage is 0.0756.

Consider A4U U6C, for which the self-cleavage was determined as 0.0522.

Turning to A4U U6G, the self-cleavage stood at 0.0301.

A4C G41A: the self-cleavage came out at 0.0502.

Turning to C5A A30U, the self-cleavage was determined as 0.498.

Consider A4U G45U, for which the self-cleavage was 0.124.

For A4U G45A, the self-cleavage is 0.105.

For A4U G45C, the self-cleavage turned out to be 0.0951.

On to C5A A23G, for which the self-cleavage turned out to be 0.0488.

On to C5A A23C, for which the self-cleavage was 0.0937.

In the case of A4C G47U, the self-cleavage came to 0.121.

On to A4G G17C, for which the self-cleavage was determined as 0.0548.

As to A4C G38C, the self-cleavage worked out at 0.61.

Turning to A4C G38U, the self-cleavage is 0.591.

For A4C G38A, the self-cleavage came to 0.142.

Consider A4U A35G, for which the self-cleavage turned out to be 0.0949.

On to A4G C8A, for which the self-cleavage was determined as 0.524.

In the case of A4G C8U, the self-cleavage is 0.953.

As for A4C A30C, the self-cleavage was 0.0841.

In the case of A4G C20G, the self-cleavage was 0.128.

With A4U A33C, the self-cleavage worked out at 0.0899.

In the case of A4U A33U, the self-cleavage is 0.0597.

In the case of A4U G39U, the self-cleavage worked out at 0.0721.

As to A4U G39C, the self-cleavage was found to be 0.0848.

For C5A G7U, the self-cleavage stood at 0.0804.

Turning to C5A G7C, the self-cleavage is 0.0608.

Consider C5A G47C, for which the self-cleavage turned out to be 0.199.

For C5A G47A, the self-cleavage was found to be 0.523.

On to A4U C9A, for which the self-cleavage is 0.0614.

Consider A4U C9U, for which the self-cleavage worked out at 0.0756.

As to A4U A23U, the self-cleavage stood at 0.0527.

On to A4U G13A, for which the self-cleavage was 0.0571.

With A4G G38U, the self-cleavage turned out to be 0.947.

For A4G G38C, the self-cleavage was found to be 0.918.

A4U C5U: the self-cleavage was 0.136.

Consider A4U C5G, for which the self-cleavage was found to be 0.0771.

A4C U6C: the self-cleavage worked out at 0.0627.

For the variant A4C U6G, the self-cleavage is 0.0323.

Regarding A4C G28U, the self-cleavage turned out to be 0.104.

As for A4C G28C, the self-cleavage came out at 0.0895.

Turning to C3U U37G, the self-cleavage was found to be 0.406.

For the variant C3U U37C, the self-cleavage came to 0.172.

In the case of C5A C21G, the self-cleavage was 0.113.

As for C5A C21U, the self-cleavage amounted to 0.0869.

On to C5A C21A, for which the self-cleavage is 0.0272.

Take C5G A11U: the self-cleavage turned out to be 0.665.

For C5G A11G, the self-cleavage amounted to 0.696.

For A4C C14A, the self-cleavage was found to be 0.33.

As for A4C C14U, the self-cleavage was 0.257.

Take A4U G44U: the self-cleavage is 0.146.

On to A4U G44C, for which the self-cleavage was 0.105.

As to A4U G44A, the self-cleavage is 0.248.

Consider C5A G43C, for which the self-cleavage came to 0.118.

Turning to A4C A10C, the self-cleavage turned out to be 0.152.

Regarding A4C A10G, the self-cleavage worked out at 0.334.

For the variant A4U G47A, the self-cleavage stood at 0.0604.

In the case of A4U G47U, the self-cleavage stood at 0.0997.

On to A4U G43A, for which the self-cleavage was 0.0748.

Turning to A4U G43U, the self-cleavage was 0.0514.

Take C5A C19A: the self-cleavage turned out to be 0.0624.

In the case of C5A C19U, the self-cleavage stood at 0.424.

As to C5A A33G, the self-cleavage is 0.472.

Regarding C5A A33C, the self-cleavage is 0.439.

In the case of A4U G24U, the self-cleavage was found to be 0.0752.

Regarding A4C A32C, the self-cleavage is 0.101.

In the case of C5G G24C, the self-cleavage turned out to be 0.118.

Take C5G G24U: the self-cleavage was 0.112.

For the variant A4U C8A, the self-cleavage was found to be 0.0382.

On to C5G A34G, for which the self-cleavage was determined as 0.384.

Consider C5G A34C, for which the self-cleavage is 0.117.

As to C5G A34U, the self-cleavage turned out to be 0.309.

As to A4G A10U, the self-cleavage was 1.04.

Regarding A4U C19A, the self-cleavage turned out to be 0.0659.

With A4G G36A, the self-cleavage amounted to 0.385.

As to A4U C15A, the self-cleavage came out at 0.0639.

C3U U6G: the self-cleavage came to 0.106.

Take A4C G7A: the self-cleavage came to 0.0506.

Consider A4C G7U, for which the self-cleavage turned out to be 0.0643.

In the case of C5A G24A, the self-cleavage came to 0.0547.

On to C5A G24U, for which the self-cleavage was found to be 0.0619.

As to C3U U18G, the self-cleavage turned out to be 0.0621.

Regarding C3U U18C, the self-cleavage is 0.215.

As to C3U U18A, the self-cleavage stood at 0.158.

For C5A G29C, the self-cleavage is 0.279.

Consider A4C A33U, for which the self-cleavage came out at 0.152.

Turning to A4C A33C, the self-cleavage stood at 0.108.

In the case of A4C A33G, the self-cleavage came to 0.146.

Regarding A4C G17C, the self-cleavage is 0.0696.

For C5G C46A, the self-cleavage was 0.776.

C5G C46U: the self-cleavage is 0.77.

Consider A4C A23C, for which the self-cleavage was found to be 0.0177.

Regarding A4C A23U, the self-cleavage worked out at 0.0688.

As to A4G G39U, the self-cleavage worked out at 0.153.

For A4G G39C, the self-cleavage turned out to be 0.115.

As for C5A A11G, the self-cleavage amounted to 0.479.
